# Tests used:
# [1] = molecular target: soluble human C3b (human) (UniProt P01024)
# human C4b (human) = molecular target: T1, human C4b (human) (UniProt P0C0L5)
# T1 sequence: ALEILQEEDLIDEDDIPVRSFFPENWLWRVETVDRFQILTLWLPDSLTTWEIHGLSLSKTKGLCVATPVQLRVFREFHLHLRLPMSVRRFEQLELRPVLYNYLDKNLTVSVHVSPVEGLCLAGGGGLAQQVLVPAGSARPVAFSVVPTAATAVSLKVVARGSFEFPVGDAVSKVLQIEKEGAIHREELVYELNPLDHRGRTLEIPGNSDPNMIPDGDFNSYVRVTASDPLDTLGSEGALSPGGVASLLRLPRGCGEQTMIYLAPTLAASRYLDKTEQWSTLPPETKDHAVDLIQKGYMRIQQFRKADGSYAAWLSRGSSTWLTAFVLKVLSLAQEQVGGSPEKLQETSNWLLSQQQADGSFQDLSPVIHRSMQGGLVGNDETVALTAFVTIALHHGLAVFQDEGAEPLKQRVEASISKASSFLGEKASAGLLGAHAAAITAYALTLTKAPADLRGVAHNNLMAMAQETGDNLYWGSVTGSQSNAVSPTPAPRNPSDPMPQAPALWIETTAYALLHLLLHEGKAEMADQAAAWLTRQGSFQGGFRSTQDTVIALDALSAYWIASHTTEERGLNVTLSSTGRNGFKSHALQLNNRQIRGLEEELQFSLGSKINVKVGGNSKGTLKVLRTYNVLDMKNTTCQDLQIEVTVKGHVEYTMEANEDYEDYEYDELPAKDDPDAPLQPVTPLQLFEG
# Δ(K1-P305); GGSSGG (SEQ ID NO: 6); fH_CCP2-3 (enzyme), sequence (chain): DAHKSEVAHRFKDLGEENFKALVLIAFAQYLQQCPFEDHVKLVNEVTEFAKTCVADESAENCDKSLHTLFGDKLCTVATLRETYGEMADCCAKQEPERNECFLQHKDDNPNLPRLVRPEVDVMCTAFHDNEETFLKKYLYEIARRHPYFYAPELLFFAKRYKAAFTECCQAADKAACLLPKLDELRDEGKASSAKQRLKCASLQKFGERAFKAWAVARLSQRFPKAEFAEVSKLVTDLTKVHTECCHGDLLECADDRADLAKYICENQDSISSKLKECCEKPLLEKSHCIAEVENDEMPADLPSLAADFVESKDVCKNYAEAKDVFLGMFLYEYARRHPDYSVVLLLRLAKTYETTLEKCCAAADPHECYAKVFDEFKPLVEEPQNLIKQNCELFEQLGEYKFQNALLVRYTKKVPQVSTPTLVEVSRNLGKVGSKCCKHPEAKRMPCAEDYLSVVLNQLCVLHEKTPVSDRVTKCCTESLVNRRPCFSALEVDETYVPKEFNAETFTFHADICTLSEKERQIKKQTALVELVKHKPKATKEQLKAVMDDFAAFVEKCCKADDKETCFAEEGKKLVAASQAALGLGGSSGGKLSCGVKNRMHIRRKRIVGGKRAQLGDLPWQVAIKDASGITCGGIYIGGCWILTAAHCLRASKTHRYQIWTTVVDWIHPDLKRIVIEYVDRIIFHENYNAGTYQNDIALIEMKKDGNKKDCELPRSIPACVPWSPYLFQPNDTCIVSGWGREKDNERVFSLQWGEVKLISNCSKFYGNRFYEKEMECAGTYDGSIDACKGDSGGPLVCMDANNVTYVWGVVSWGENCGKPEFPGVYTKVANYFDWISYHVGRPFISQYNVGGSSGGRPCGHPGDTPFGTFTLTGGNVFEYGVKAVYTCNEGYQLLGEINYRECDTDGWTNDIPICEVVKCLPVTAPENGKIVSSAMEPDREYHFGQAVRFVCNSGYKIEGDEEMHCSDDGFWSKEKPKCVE
# WT; GGSSGG (SEQ ID NO: 6); CCP_2-4 (enzyme), sequence (chain): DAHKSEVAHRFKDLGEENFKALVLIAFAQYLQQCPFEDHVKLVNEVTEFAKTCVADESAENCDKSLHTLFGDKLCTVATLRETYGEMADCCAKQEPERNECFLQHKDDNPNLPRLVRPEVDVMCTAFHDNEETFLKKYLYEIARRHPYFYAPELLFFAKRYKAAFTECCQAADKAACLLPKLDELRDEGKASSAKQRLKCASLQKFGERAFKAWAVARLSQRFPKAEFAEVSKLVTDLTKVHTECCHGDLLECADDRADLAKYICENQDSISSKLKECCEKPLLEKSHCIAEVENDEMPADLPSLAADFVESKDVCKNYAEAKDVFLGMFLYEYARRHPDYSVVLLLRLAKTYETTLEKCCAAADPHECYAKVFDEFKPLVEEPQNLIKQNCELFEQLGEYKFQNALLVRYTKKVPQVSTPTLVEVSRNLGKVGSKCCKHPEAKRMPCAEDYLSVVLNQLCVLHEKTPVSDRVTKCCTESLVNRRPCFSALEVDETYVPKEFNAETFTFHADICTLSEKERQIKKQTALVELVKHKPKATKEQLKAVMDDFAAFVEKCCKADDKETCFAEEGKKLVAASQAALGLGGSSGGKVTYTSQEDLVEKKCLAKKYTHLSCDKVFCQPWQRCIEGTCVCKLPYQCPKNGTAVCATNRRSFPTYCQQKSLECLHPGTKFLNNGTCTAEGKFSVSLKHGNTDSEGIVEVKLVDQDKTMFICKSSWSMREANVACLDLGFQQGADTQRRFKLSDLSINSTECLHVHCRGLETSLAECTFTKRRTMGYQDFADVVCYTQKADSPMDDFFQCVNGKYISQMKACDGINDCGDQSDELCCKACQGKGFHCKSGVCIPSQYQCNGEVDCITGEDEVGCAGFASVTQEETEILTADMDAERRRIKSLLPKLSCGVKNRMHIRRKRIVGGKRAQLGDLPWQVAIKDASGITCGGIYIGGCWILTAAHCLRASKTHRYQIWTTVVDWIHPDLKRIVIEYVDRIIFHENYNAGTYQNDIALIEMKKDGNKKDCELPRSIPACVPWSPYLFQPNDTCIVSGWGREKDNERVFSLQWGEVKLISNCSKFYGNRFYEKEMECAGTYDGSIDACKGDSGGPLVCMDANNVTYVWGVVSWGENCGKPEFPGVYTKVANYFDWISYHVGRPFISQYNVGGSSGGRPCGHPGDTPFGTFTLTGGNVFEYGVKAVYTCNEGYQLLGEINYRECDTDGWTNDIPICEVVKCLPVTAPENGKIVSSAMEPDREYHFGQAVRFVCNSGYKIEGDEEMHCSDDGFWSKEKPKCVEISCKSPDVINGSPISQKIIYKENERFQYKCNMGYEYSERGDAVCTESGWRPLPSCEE
iC3b Screen Ref Fold (fold vs CFI-HSA wild type) [1],C4b Screen Ref Fold (fold vs CFI-HSA wild type) (human C4b (human)),Substance,other results
0.17,0.15,CFI-HSA R371G (enzyme),
0.24,1.67,CFI-HSA Y408L; E457G; E461Q; R462K; N531G; ΔC-term (Δ558-PFISQYNV (SEQ ID NO: 14)-565) (enzyme),
0.13,0.03,CFI-HSA K424T (enzyme),
,,CFI-HSA variant Y408L; E457G; P535G; N422K (enzyme),iC3b Screen Ref Fold (fold of CFI-HSA wild type) [1]: 1.39; C4b Screen Ref Fold (fold of CFI-HSA wild type) (human C4b (human)): 1.07
0.88,0.48,CFI-HSA Y553G (enzyme),
0.16,0.24,CFI-HSA K368G (enzyme),
,,CFI-HSA variant F559L; V565T (enzyme),iC3b Screen Ref Fold (fold of CFI-HSA wild type) [1]: 0.54; C4b Screen Ref Fold (fold of CFI-HSA wild type) (human C4b (human)): 0.28
0.01,0.05,Δ(K1-P305); GGSSGG (SEQ ID NO: 6); fH_CCP2-3 (enzyme),
0.3,0.17,CFI-HSA L73G (enzyme),
1.46,0.74,CFI-HSA A366G (enzyme),
1.93,0.33,CFI-HSA Y408L; E530Y (enzyme),
,,CFI-HSA variant Y403F; G406A; D425K; E457G; E461Q; N531G (enzyme),iC3b Screen Ref Fold (fold relative to CFI-HSA wild type) [1]: 0.14; C4b Screen Ref Fold (fold relative to CFI-HSA wild type) (human C4b (human)): 4.12
,,CFI-HSA variant Y408L; N531G; P535G; P558S (enzyme),iC3b Screen Ref Fold (fold of CFI-HSA wild type) [1]: 1.28; C4b Screen Ref Fold (fold of CFI-HSA wild type) (human C4b (human)): 1.02
1.23,0.91,CFI-HSA A342G (enzyme),
,,CFI-HSA variant G556P (enzyme),iC3b Screen Ref Fold (fold of CFI-HSA wild type) [1]: 0.39; C4b Screen Ref Fold (fold of CFI-HSA wild type) (human C4b (human)): 0.65
0.43,0.31,CFI-HSA R365H (enzyme),
0.91,0.28,CFI-HSA K424L (enzyme),
,,CFI-HSA variant E457G; N531G; P535G; P558S (enzyme),iC3b Screen Ref Fold (fold of CFI-HSA wild type) [1]: 0.87; C4b Screen Ref Fold (fold of CFI-HSA wild type) (human C4b (human)): 1.56
0.89,0.24,CFI-HSA R365W (enzyme),
-0.01,0.5,CFI-HSA R557D (enzyme),
,,CFI-HSA variant Y408L; E457G; P535G; WT; GGSSGG (SEQ ID NO: 6); CR1(ccp15-17) (from UniProt P17927) (enzyme),iC3b Screen Ref Fold (fold of CFI-HSA wild type) [1]: 0.23; C4b Screen Ref Fold (fold of CFI-HSA wild type) (human C4b (human)): 1.99
0.46,0.07,CFI-HSA D549V (enzyme),
1.57,4.73,CFI-HSA T377G; E457G; E461Q; N531G (enzyme),
,,CFI-HSA variant Y553H; V565I (enzyme),iC3b Screen Ref Fold (fold of CFI-HSA wild type) [1]: 1.32; C4b Screen Ref Fold (fold of CFI-HSA wild type) (human C4b (human)): 1.97
0.67,0.21,CFI-HSA variant Y20F; E38A; S250A; D425A (enzyme),
0.18,1,CFI-HSA D549K (enzyme),

iC3b Screen Ref Fold (fold vs CFI-HSA wild type) [1],C4b Screen Ref Fold (fold vs CFI-HSA wild type) (human C4b (human)),Substance,other results
0.11,2.44,CFI-HSA R557H (enzyme),
0.03,0.02,CFI-HSA variant Δ(K1-P305); N531G (enzyme),
0,0.38,WT; GGSSGG (SEQ ID NO: 6); CCP_2-4 (enzyme),
0.97,0.32,CFI-HSA K424R (enzyme),
-0.05,0.01,CFI-HSA W528G (enzyme),
1.93,1.07,CFI-HSA D459G (enzyme),
,,CFI-HSA variant S552G (enzyme),iC3b Screen Ref Fold (fold of CFI-HSA wild type) [1]: 0.58; C4b Screen Ref Fold (fold of CFI-HSA wild type) (human C4b (human)): 1.08
,,CFI-HSA variant Y403F; D425K; E457G; E461Q; K504Y; N531G (enzyme),iC3b Screen Ref Fold (fold relative to CFI-HSA wild type) [1]: 0.03; C4b Screen Ref Fold (fold relative to CFI-HSA wild type) (human C4b (human)): 3.11
2.48,3.41,CFI-HSA N531G; E530Y (enzyme),
1.38,0.78,CFI-HSA Y553R (enzyme),
,,CFI-HSA variant Y553H; V565I; P558S (enzyme),iC3b Screen Ref Fold (fold of CFI-HSA wild type) [1]: 0.46; C4b Screen Ref Fold (fold of CFI-HSA wild type) (human C4b (human)): 1.75
,,CFI-HSA variant Y408L; N422K (enzyme),iC3b Screen Ref Fold (fold of CFI-HSA wild type) [1]: 1.27; C4b Screen Ref Fold (fold of CFI-HSA wild type) (human C4b (human)): 0.6
0.86,0.75,CFI-HSA D549G (enzyme),
1.83,5.7,CFI-HSA E457G; N531G; E461Q; R462K; F464Y; E530Y (enzyme),
0.01,0.15,CFI-HSA variant A328C; W468C; K326Y; R327N (enzyme),
,,CFI-HSA variant K14E (enzyme),iC3b Screen Ref Fold (fold of CFI-HSA wild type) [1]: 1.74; C4b Screen Ref Fold (fold of CFI-HSA wild type) (human C4b (human)): 1.35
,,CFI-HSA variant S552G; Y553H; F559L; V565I; P558S (enzyme),iC3b Screen Ref Fold (fold of CFI-HSA wild type) [1]: 0.62; C4b Screen Ref Fold (fold of CFI-HSA wild type) (human C4b (human)): 2.44
0.21,3.23,CFI-HSA R557Y (enzyme),
1.12,1.49,CFI-HSA Y553K (enzyme),
0,-0.06,CFI-HSA variant A328C; W468C (enzyme),
0.12,2.13,CFI-HSA R557F (enzyme),
1.74,1.68,CFI-HSA Y408L; E457G; D425R; E530Y (enzyme),
1.01,0.14,CFI-HSA variant S250A; D425R (enzyme),
0.2,0.06,CFI-HSA K368E (enzyme),
,,CFI-HSA variant N531G; P535G; WT; GGSSGG (SEQ ID NO: 6); CR1(ccp15-17) (from UniProt P17927) (enzyme),iC3b Screen Ref Fold (fold of CFI-HSA wild type) [1]: 0.06; C4b Screen Ref Fold (fold of CFI-HSA wild type) (human C4b (human)): 3.06
-0.01,0.03,CFI-HSA V526G (enzyme),
